The record followed here is patent US20200299384A1.

Where two headings read alike, the source gives them in different places.

The target in assay [1] is mouse CD3epsilon protein (mouse) (UniProt P22646). Briefly: ELISA, antigen coated on plate.
The target of assay [2] is Cynomolgus Monkey CD3 epsilon protein (Cynomolgus monkey) (UniProt Q95LI5). Briefly: ELISA, antigen coated on plate. (ELISA stands for enzyme-linked immunosorbent assay.)
The target of assay [3] is Human CD3 epsilon (CD3epsilon) protein (His Tag) (human) (UniProt P07766). Briefly: ELISA, antigen coated on plate.
Human CD3 epsilon (CD3epsilon) protein (His Tag) (human), sequence (P07766 23-126): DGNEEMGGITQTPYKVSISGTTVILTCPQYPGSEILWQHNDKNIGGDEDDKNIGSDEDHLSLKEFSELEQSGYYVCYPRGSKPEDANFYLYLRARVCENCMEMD
The target of assay [4] is human CD3 expressed on cells (Jurkat cells; human CD4 T cells) (human) (UniProt P07766). Briefly: flow cytometry on Jurkat cells. Background: A flow cytometer gives signals particle by particle.
human CD3 expressed on cells (Jurkat cells; human CD4 T cells) (human), sequence (P07766 23-207): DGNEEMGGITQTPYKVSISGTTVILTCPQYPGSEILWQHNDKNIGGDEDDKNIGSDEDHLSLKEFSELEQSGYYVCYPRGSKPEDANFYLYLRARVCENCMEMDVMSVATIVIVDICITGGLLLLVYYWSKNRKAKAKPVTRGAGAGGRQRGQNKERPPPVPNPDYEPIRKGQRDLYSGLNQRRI
Assay [5] shares this target. Briefly: flow cytometry on Jurkat cells, one site saturation fit.
Assay [6] has the same target. Briefly: flow cytometry on human CD4 T cells.
Assay [7] shares this target. Briefly: flow cytometry on Jurkat cells, one site saturation fit. This is another data set of the same source.

Cynomolgus Monkey CD3 epsilon protein (Cynomolgus monkey), sequence (Q95LI5 22-117 limits assumed): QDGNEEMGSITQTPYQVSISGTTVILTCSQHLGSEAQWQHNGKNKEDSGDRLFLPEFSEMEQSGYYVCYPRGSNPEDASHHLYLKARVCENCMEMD
mouse CD3epsilon protein (mouse), sequence (P22646 22-108 limits assumed): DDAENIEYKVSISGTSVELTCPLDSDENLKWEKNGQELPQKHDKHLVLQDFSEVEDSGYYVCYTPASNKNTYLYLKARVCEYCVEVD

As for Negative Control (Table 7), the ELISA A450 was found to be 0.179 A450 in assay [1], 0.046 A450 in assay [2] and 0.046 A450 in assay [3].
The EC50 is the concentration needed to bring the measured effect to its halfway point. WBP331-BMK1 (UCHT1) (antibody) returned an EC50 in assay [3] of 186 pM.
As a reminder, the Kd is the constant that tells how readily two partners part at equilibrium. In the case of Benchmark antibody OKT3, the figures for the concentration for a half-maximal effect (EC50) in assay [4] and in assay [6] were 200 pM and 202 pM, respectively. Moreover, the ELISA A450 in assay [1] was 0.24 A450; in assay [2], 0.052 A450; in assay [3] it was 0.048 A450. Also, the figures for the Best fit-Bmax in assay [5] and in assay [7] were 6.06e-12 and 9.41e-11, respectively. The Kd worked out at 27.7 pM in assay [5] and 129 pM in assay [7].
